Target: PlyCB R66E mutant (streptococcal bacteriophage (C1)) (UniProt Q7Y3F3)
Assay: SEC

- stoichiometry N: 8
Substance: PlyCB R66E mutant (from UniProt Q7Y3F3 1-72) (natural protein)

Source: article PMC8555655
